Measurements: patent US7563610 (Takeda / Millennium, dated 2009)

Target: the molecule itself
Experiment: X-ray crystal structure (homodimer in the asymmetric unit)

B1: IspA (farnesyl pyrophosphate synthase) from E. coli, full length with non-cleavable N-terminal six histidine tag (enzyme)
chain: MGSDKIIHHHHHHTLMDFPQQLEACVKQANQALSRFIAPLPFQNTPVVETMQYGALLGGKRLRPFLVYATGHMFGVSTNTLDAPAAAVECIHAYSLIHDDLPAMDDDDLRRGLPTCHVKFGEANAILAGDALQTLAFSILSDADMPEVSDRDRISMISELASASGIAGMCGGQALDLDAEGKHVPLDALERIHRHKTGALIRAAVRLGALSAGDKGRRALPVLDKYAESIGLAFQVQDDILDVVGDTATLGKRQGADQQLGKSTYPALLGLEQARKKARDLIDDARQSLKQLAEQSLDTSALEALADYIIQRNK
notes: Two copies form the dimer in the crystal; also called FPPS
binding result: binds
